Source: publication PMC8640019

Target: SH2B (human) (UniProt Q9NRF2)
Assay: ITC

Ka: 1.45e+06 M⁻¹
Kd: 690 nM
stoichiometry N: 0.79
Substance: JAK2 pY813 peptide
